The supplement of paper PMC9170038

Tested on: K4 kissing-loop RNA reporter
Assay: apparent KD of K4 kissing-loop reporter; higher = weaker reporter binding
Settings: Eterna round: R107
Protocol: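 RNA-MaP round R107: designed RNA switches with theophylline, tryptophan, arginine or FMN aptamers are transcribed on-chip within common flanks. They are titrated with a labelled K4 kissing-loop RNA reporter in RNA-MaP buffer (100 mM Tris pH 7.5, 80 mM KCl, 4 mM MgCl2), without ligand or with the indicated ligand. Median apparent KD per design.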

[1] = input ligand: theophylline 20 uM
[2] = input ligand: tryptophan 2.4 mM
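Note: bound reporter read as fluorescence of individual clusters on recovered sequencing chips by microscopy, with normalized cluster intensities fitted with a binding model.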

Sequence | apparent KD of K4 kissing-loop reporter (input ligand: FMN 200 uM) | apparent KD of K4 kissing-loop reporter (input ligand: arginine 13.2 mM) | apparent KD of K4 kissing-loop reporter (input ligand: none) | apparent KD of K4 kissing-loop reporter [1] | apparent KD of K4 kissing-loop reporter [2]
UGUCAUUGGUCGGCCGCCACUUCGGUCAAAGACCAUAAAGAGUGAUGUUCUUAAGACGAAAGUCGAAGGACCGGGACCGAUGACU [TrypBS 11 #SwitchBubble #K4Middle] | 1110 nM | 744 nM | 1200 nM | 782 nM | 273 nM
UGUCAUUGGUCGGCCGCCACUUUAUAUGGAGUGAUGUUUUGUAGAUUGUGUUGAAAGGUGUGGUGAAGGACCGGGACCGAUGACU [FiskerMod 25 - Jieux - Same State - Tryptophan B] | 803 nM | 617 nM | 1010 nM | 1010 nM | 967 nM
UGUCAUUGGUCUGAUACCAGAAGAUAUUCUGGAGUGAUGUUCCAAGUACGACAAAGUCGCUUCCCUUGGCAGCAGACCGAUGACU [TheoBS 20 #SwitchBubble 13 #StaticStem] | 471 nM | 195 nM | 617 nM | 501 nM | 690 nM
UGUCAUUGGUCUGAUACCAGUUGAUGACGAAUACGUCAACUGGAGUGAUGUUCCUAAAACAACCCUUGGCAGCAGACCGAUGACU [TheoBS 1 #SwitchBubble #StaticStem] | 788 nM | 511 nM | 658 nM | 709 nM | 564 nM
UGUCGAGUGAUGUUCGAUUUGGUGCAUGCAGAGGAUAUAGGGUGGGCUAGAAGGCUGAAAAGUGCUUCGAGUGAUGUUCGAAGUU [Exclusion FMN A GF10] | 117 nM | 113 nM | 100 nM | 100 nM | 97.3 nM
UGUGUGUAGGGAAGGAGCGCCGAGAGAAGAAGAAAAGAGUGAUGUUCAAGACAAUAAAGACGGCAGGUAGGUCGCCCUGUGUGUG [Default title] | 756 nM | 706 nM | 516 nM | 517 nM | 267 nM
UGUGUUUACCUGACUCAGUGAUGUUGAGAAGGAGCGUGAGAAAUCACAGGUAGGUCGCUCAACCUAAAUUCAGGUGAGCACUAAA | 268 nM | 197 nM | 325 nM | 277 nM | 253 nM
UGUGUUUACCUGACUCAGUGAUGUUGAGAAGGAGCGUGCAAACGCACAGGUAGGUCGCUCAACCUAAAUUCAGGUGAGCACUAAA | 568 nM | 380 nM | 453 nM | 423 nM | 406 nM
UGUGUUUACCUGACUCAGUGAUGUUGAGAAGGAGCGUGCGAAGGCACAGGUAGGUCGCUCAACCUAAAUUCAGGUGAGCACUAAA | 249 nM | 168 nM | 344 nM | 281 nM | 250 nM
UGUUUUUUUUUGAUGUUUGUUGUAAAAUGGCAGGAUAUCGUAGAGGCGAGAAGGGCUUUUAUGCGUUAUGAGUGAUGUUUGUAGG [vevvmullin] | 418 nM | 252 nM | 381 nM | 269 nM | 284 nM
UUAAUAAUUCAAGGAUAUGUUUUCUAUUUCGAGUGAUGUUCGGAAUUAAUAAAUUUAAAAGAUUAUACAGAAGGUGAUAGAUAGU [Cynwulf-mod#3] | 89.5 nM | 82.5 nM | 90.9 nM | 88.1 nM | 75.9 nM
UUAAUAAUUCAAGGAUAUGUUUUCUAUUUCGAGUGAUGUUCGGAAUUAAUAAAUUUAAAAGAUUAUACAGAAGGUGAUGGAUAGU [Cynwulf-mod#4] | 114 nM | 117 nM | 109 nM | 129 nM | 90.3 nM
UUACGGUCCUCGGCCGCCACUCAUAGUGAUGUUAUGCUGCCUGAAGGCACCGGACCUGGAUAUCAGAGGACCGGGAGGCCAUUCG [theeternabot_exclusion_KL_Trp_B_6] | 793 nM | 590 nM | 810 nM | 560 nM | 544 nM
UUAGAGGCCCAGUGAUGUUGGGUGGUUGGGCGAGGACCGGUACGGCCGCCACUCGCCGCGGAACUAUCGGAAUCUCGCUCGGCUA [Aninxearqu] | 277 nM | 233 nM | 239 nM | 309 nM | 256 nM
UUAGCCCUAUAGGGCAAGACCUAUACUGAUACCAGAGGGUAUACCCUCCCUUGGCAGCGGAUCGAGUGAUGUUCGUAAGGUCAUU [AK4.4 SS Theophylline A] | 741 nM | 730 nM | 844 nM | 776 nM | 572 nM
UUAGGAGUGGAAGGAUAUCCUGGUGUGGGUGAUGUUAGUGAUGUUGAAAGUGCAGUGAUGUUGCGCGGAGAAGGUCCGGUGUUGA [BDazzled - #7 - Exc. FMN B] | 180 nM | 153 nM | 173 nM | 256 nM | 157 nM
UUAGGAGUGGGAGGAUAUCCUGGUGUGGGUGAUGUUAGUGAUGUUGAAAGUGUAGUGAUGUUGUGCGGAGAAGGUCCAGUGUUGA [BDazzled - #10 - Exc. FMN B] | 504 nM | 295 nM | 459 nM | 646 nM | 292 nM
UUAGUUGAAAGUGAUACCAGACAAGUUAAGAGAAGAAAUUAAGUUGGAGUGAUGUUCCAAGUCCCUUGGCAGCACAUUGUAAUUU [Same State Theophylline B GF12] | 101 nM | 211 nM | 129 nM | 256 nM | 126 nM
UUAUACAACUGAAGGAGCGCCAGUGAUGUUGGCGUGACGACUGCUUCCUUCGCCGAGUCCUGGCAGGUAGGUCGCAGUUGCUGAA [Oratgere] | 82.6 nM | 97.2 nM | 113 nM | 99 nM | 94.8 nM
UUAUAUCUCUGACUUUCACUUUGCGUAUCUGAGGAUAUCUGAAUUCAGAGAAGGCAGUGAUGUUGCUUUGCUGUGUGUCUGAGAA [AK2 Exc FMN A] | 702 nM | 464 nM | 526 nM | 499 nM | 372 nM
UUAUGUUUAGUUCACCCAGUGAUGUUGGAAGGAGCGUGCGAAAGCACAGGUAGGUCGCCAACCUUAAAGUGUCUUGAUUAUCUAA [JR_Nu_ExcArginiA_Sub029] | 400 nM | 499 nM | 411 nM | 386 nM | 364 nM
UUAUUAAUAACAGAUACCAGUCCAGAAUGAAUACUAUAGUGAUGUUAUAAUAAAGGGAAGGACCCUUGGCAGCUGUAAUAUAUUU [AstrosSSTheB#1] | 431 nM | 381 nM | 501 nM | 338 nM | 368 nM

Sequence | apparent KD of K4 kissing-loop reporter (input ligand: FMN 200 uM) | apparent KD of K4 kissing-loop reporter (input ligand: arginine 13.2 mM) | apparent KD of K4 kissing-loop reporter (input ligand: none) | apparent KD of K4 kissing-loop reporter [1] | apparent KD of K4 kissing-loop reporter [2]
UUCAGUGACAUACGAGUGAUGUUCGUAAUACGAGGACCGGUACGGCCGCCACUCGCACGUCGGCAGUUUGUUCAUGCAUCAGACU | 226 nM | 160 nM | 259 nM | 255 nM | 514 nM
UUCAGUGAUGAUGAACACUGUUGUAUAAACUAGGAUAUGCUGAUAAGCAGAAGGAGUGAUGUUCCGUUCAUCAUCAGAAUUAAAU [KL-XFMN-A4] | 619 nM | 378 nM | 371 nM | 407 nM | 255 nM
UUCGAAAGUCGAAGGAGCGCUGGCGGUCAUAGACUAUAUCUGUAGUGAUGUUACAGAUUCCAGCAGGUAGGUCGCGACAGAGACA [Arg B SS t18b] | 124 nM | 88.4 nM | 107 nM | 89.8 nM | 108 nM
UUCGAUCAGUGAUGUUGAUCAAUAGUCGAAGGAGCGCUAUAGAUAGCAGGUAGGUCGCGGCUACAGGGUGUUAAGACACCCAGAA [#13 K4 Arginine A Same State] | 534 nM | 450 nM | 453 nM | 477 nM | 488 nM
UUCGAUCAGUGAUGUUGAUCAUCAGUCGAAGGAGCGCUAGAGAUAGCAGGUAGGUCGCGACUGCAAGGUGUGAGAACACCUCGAA [Arg A SS t9a] | 457 nM | 358 nM | 487 nM | 444 nM | 255 nM
UUCUUGAUGGAAACAUCGAGUAUUACUGAUACCAGUAUCGAUAGAUACCCUUGGCAGCAGAAUCAGUAAUAACGAGUGAUGUUCG [Ex Theophylline A K4 5] | 509 nM | 494 nM | 505 nM | 567 nM | 480 nM
UUGAGCCGGACGUAAGUCCGGCUCUGCGAGCGAGGACCGGUACGGCCGCCACUCGGUGCAGUGAUGUUGCAUGGCCGCAAGGCCG [#2 Exclusion - Tryptophan A Attempt #5 (HarryS)] | 324 nM | 233 nM | 235 nM | 394 nM | 278 nM
UUGCAAGAGUCGGCCGCCACUCCGGGCCCUAUAAAUGGGCGCAGUGAUGUUGCGGCUAGGCCUCUGAGGACCGGGACUUUGUAGC [Ateusraor] | 51 nM | 55.4 nM | 78.5 nM | 82.9 nM | 111 nM
UUGGAAAUCAGAAGGAGCGUCUAAAAUGAAGGAACCAGUGAUGUUGGUUUUAUUUAAUGAAGACAGGUAGGUCGCUGAAUUUUUA [Same State Arginie B GF 18] | 91.4 nM | 101 nM | 94.4 nM | 116 nM | 91.5 nM
UUGGCAGUGAUGUUGCCAGAGCUCACCGAAGGAGCGCGUGAAAACGCAGGUAGGUCGCGGUAGCGGAGUGAUUCUCCGCGAGGGC [Same State Arginine A GF 21] | 44.5 nM | 71.7 nM | 77.2 nM | 80.3 nM | 87.9 nM
UUGGCCCGGCCGGAAGGCCGGGCCUGCGAGCGAGGACCGGUACGGCCGCCACUCGGCGCAGUGAUGUUGCGUGGCCGCAAGGCCG [#2 Exclusion - Tryptophan A Attempt #1 (HarryS)] | 370 nM | 337 nM | 439 nM | 581 nM | 874 nM
UUGGCCGGACGGGAUACCAGUCAAAUCGUGUGCUUGGGAUGUCUAAGAGCCAGUGAUGUUGGCCCUUGGCAGCCCUCCCAGCUUG [Esleaqu] | 111 nM | 105 nM | 110 nM | 102 nM | 93.5 nM
UUGUUUGGUUGAGAGGUUGGGCGAAAUGAUACCAGUAUAUAAGAAUACCCUUGGCAGCAUAAGAAAGAUAUAGUGAUGUUGUAUA [SSTheophA.L] | 597 nM | 320 nM | 431 nM | 560 nM | 411 nM
UUGUUUGGUUGAGAGGUUGGGCGAGAUGAUACCAGUAGAGAAGAGUACCCUUGGCAGCAUAAGAAAGAUAUAGUGAUGUUGUAUA [SSTheophA.P] | 422 nM | 362 nM | 546 nM | 566 nM | 396 nM
UUGUUUGGUUGAGAGGUUGGGCGAGAUGAUACCAGUAUAGUAUUGUACCCUUGGCAGCAUAGGAGAGAUAUAGUGAUGUUGUAUG [SSTheophA.W] | 419 nM | 320 nM | 457 nM | 416 nM | 328 nM
UUUAAAUAUAGUGAUGUUAUAUAACAAUGACGAGGACCGGUACGGCCGCCACUCGAGAGAGAUAAUGGUCGUUAGAAUCUAACGC [AstrosSSTryA#5] | 760 nM | 778 nM | 685 nM | 963 nM | 484 nM
UUUAACGAGUGAUGUUCGAAGAGUAAUGGUGAGGAUAUCGAUUUUUCGAGAAGGCGCCUCGAAGUGAUACGAAAGUAUCGCUUCG [FMN A 6] | 239 nM | 247 nM | 286 nM | 253 nM | 255 nM
UUUAUAAGGUCGGCCGCCACUGGAUUUAUGUUUGUUUCGUCUGGAUCAAAGUGAUGUUUUGAGUCCAGGACCGGGACAUUUGUUA [whbob_Ex_Tryp_B_w39] | 86.6 nM | 76.5 nM | 79.3 nM | 75.6 nM | 90.5 nM
UUUAUAAUGUCGGCCGCCACUGGAUUAAUAUUUGUAUAAUCUAGUUCUAAGUGAUGUUUAGAGUCCAGGACCGGGACAUUUGUUA [#09 K4 Tryptophan B Exclusion] | 395 nM | 282 nM | 300 nM | 311 nM | 212 nM
UUUAUAUAGUCGGCCGCCACUGAUUUUUUUAUAUGUUUAUGUUUAUACGAGUGAUGUUCGAUAUACAGGACCGGGACUUUUGUUA [JR_SSTryptoB_Sub018] | 186 nM | 237 nM | 238 nM | 294 nM | 180 nM
UUUAUUAAGACGGCCGCCACUGAUUCAGAGUGAUGUUCUGAUAUUUUUUUAUAUAAUAAUAACAGCAGGACCGGGUCAAUUAUUA [JR_SSTryptoB_Sub013] | 225 nM | 237 nM | 233 nM | 272 nM | 192 nM
